Source: the DeepSol protein solubility set

assay: soluble on expression in E. coli; label from the status in PepcDB or PDB records

Sequence	soluble on expression in E. coli
MPSLLLLGAGHAHMTVMEAIPRLIERGHSVTVVGPGERHYYSGMGPGMLGGHYSPEDISFPVRQMVTQRGGTFITARATRIDPQRKHVVLDSGQELAYDVCSCNTGSHVPSSIVDGDATDVFPVKPIENLLAGRESIRRRASRGPVRIAVVGGGPAALEVAGNAAAALTQTGAQGNVAMYAGSSFLRRFPARVRELARKELQKARVKLHEGAYASAVHTGEVVLDNGERYEADIIFTALGVVPSPLFAASGLPVGKDGGLAVDAHLRCTEYDDIFGGGDCIWFTPQPLAKVGVYAVRQNPVLLHNLAARLEGGPLLTFSPGGEYLLIFNTGSGRGILHKAGFTFAGRLAFMVKDWIDRRFIRRFQPHLEHHHHHH	not soluble
MPRPDNVPVYTMRQLAAFVAVAETGTISGAAERMHLSQSALSAAVTDLEKALKAQLCVRRRARGVQLTPTGEAVLSRARALLQQAGELQSDASGEGGVVAGPIAVGCYPALGPTILPSMLYAFTAEYPRASVEFREDTQNRLRTQLEGGELDVAIVYDLDLSPEWQTVPLMTREPMVVLGAEHPLAGVDGPVRLADLAEHPMVLLDAPPSTNHAMDVCREAGFAPRVAYRTANFETARAFVGRGLGWTLLLQRPRVDVTYEGLPVVVKPIAEPKPASVAVVVAWHQEATLSRVARAFIRFVTA	not soluble
MGGGHFAASNALKTAFLQKDPQAKVEIVDTLKIISPILDKLAVGTYLKAIKTVPFIYGLVYDSTDKDPPTRFSKAIYEKFYFAFYKLYNIISELNPDVIIGTHPSPIDMVSQLKKRGNINVPIISIVTDFTIHPYWINEYADYIIVHHENLVYEAVKKGAPGKKVIPLGIPLEHHHHHH	not soluble
MGMVSDAVIRHQGKVIAVYPDGILPLEPPRQNASQLYLTSGMDERKRKLIDLGEAFVILAGGFGTMEESFQLLTEMSINQTAVRPVIFVGRKFYQPLFDLLRLQLKEGMISKEVIDAISLVDTAEETIELLGDLKLEQVVLEHHHHHH	not soluble
MGSDKIHHHHHHMLTRTHEAIPEIMYRIGDLADETGLPCYIVGGYVRDLIMQRPCTDIDIMVIGEPVPFAHALAEKLGGRNFVLFERFRTAQLELDDPKAGTFKLEIVGARKESYNPESRKPITSIGTLEDDLSRRDFTINALALRLNRKERGEVVDLFDGQRHIREKLLKTPLDPEQTFSDDPLRMMRAARFACQLDFQLDEATLTAMSTMSSRIQIVSRERVSHEFFKIMEARKPSIGLKILYSTGLLKEIIPELTVMAGIEQVDGLGHKDTLFHTFQVVDNLAEHSDKLWLRVSALFHDIAKPVTKRFHPGSGWTFHGHEAVGVKIVARIFRAMKWPLEPMEYVQKMVRLHHRPIPLSKEEITDSAVRRLMFDAGPDLDDLMTLCRADVTSKNPRKVQRIMKNFSNVEAKIAEVGEKDLLAKWRPPVSGTDIMELLNLPQGRTVGIIKSRMENAIIDGDIPYDRQAALDYIQQVYREMQEKGEA	not soluble
MILNIRKMGNSQGVILPKSLLGQIGAVDSLAVTVEKGNIILSCPTVRRGWAEAAAMLVETEQEHFFSEIENEADKEWIW	not soluble
MVCISRFLPVKGVQNINGKELKSIVGKKGKYFIDVRTVGEYRGNHMKGFQNIPLNDLASKANQLDKNKEVIVICQSGMRSKQAAKVLKKLGFQQVINVSGGMNSL	not soluble
TQETFPPKYLHYDEETSHQLLCDKCPPGTYLKQHCTAKWKTVCAPCPDHYYTDSWHTSDECLYCSPVCKELQYVKQECNRTHNRVCECKEGRYLEIEFCLKHRSCPPGFGVVQAGTPERNTVCKRCPDGFFSNETSSKAPCRKHTNCSVFGLLLTQKGNATHDNICSGNSESTQKCGIDVTLCEEAFFRFAVPTKFTPNWLSVLVDNLPGTKVNAESVERIKRQHSSQEQTFQLLKLWKHQNKDQDIVKKIIQDIDLCENSVQRHIGHANLTFEQLRSLMESLPGKKVGAEDIEKTIKACKPSDQILKLLSLWRIKNGDQDTLKGLMHALKHSKTYHFPKTVTQSLKKTIRFLHSFTMYKLYQKLFLEMIGNQVQSVKISCL	not soluble
MSLSWRNRIQIFLAPDRVDLTGIARGIRPVQQFRQSGVCVQENDSRQQWKAPLRLLEQMIGQMDDRFRRGSELHITLSNHFVRYGVIAPQPSLANPDELMAYAGFQMREIYGERIDDWELSLSTWDPYGGALCAAIARDLQSELIMFARQYDTRFACIEPYLAAALDHWSKRLVEKQVWFVLVETGRFCLVVLSEGAWRCARNQRVVENLQEELLAALEQESIILSPDRSVERVYVFAPELTGQLPVHDLRWQFVRLPDEKHPAPSYFPGVTGMDDSQNH	not soluble
MGSDKIHHHHHHMDASKNSDFKDTWLVVPCYNEATVIREVLENALKTFPNIVAVNDGSPDNSAEEIHAAGAHLVNHPVNLGQGAAIQTGIEYARKQPGAKYFVTFDADGQHQVKDVIRMVERLRAEDVDIIVGTRFGRPRQADDQVPLIKRLVLRTVVLLSPKTRRLGLTDAHNGLRVFNQKVAQEMNIRMNGMSHASEIVDQIDERGWRISEEPVDILYTEYSMSKGQSLLNGVNILADGFLARRLP	not soluble
MTDKNPISEAKRYLDNARTILKEKGNKENRFYRDPKYVKMAGHTAYAGVLLALDACFGDKTKGRKDVGWYKEQLSGMDKTALKNFISAYDLLHVAMSYDGNTDSDIAKLGLTRADEIILWVEQRTVTC	soluble
MGSDKIHHHHHHMPINSYENYVLSWRPVKERLTRPYYQSLVQQLEADILSGALQKNVKLPSQRELADYLDLNFTTIGQAYKHAMEKGLLYTNIGCGTFVSPNAFHSITISTNQVADHLIDLGLVSSFDMCNQRILPFIESVSKNAALNSLLNYRDPLGTHFQRATAAEWLQTQGVRTNAEEVAIVSGVQNGLAVTLAAAFSPGQRIAVDRYTYSNFIELAQLYHLEIVPIGYDSEGMDPEHLLQECKKKKIHGIFLMPACNNPIGFQMSSARRMTLAEIIQQEHLWVIEDDIHSFLTTYAQQAVLPTFQELLPQQTIYLAGMTKFVCTGLRIAYLVFPPLLRQEIERAIFNINVKTSGFDAEIVTQVLRSPVAKELVIEKLALTKQANDLFDTIFGLARPSNPLPYYRTIPLSTEKTAPQIEQEFLQNGVRLFHSSRFTVQNQPDAFLRISLASNQLEVLAKGLTIIQELLPTLNEKKGHSL	not soluble
MKIDITDYNHADEILNPQLWKEIEETLLKMPLHVKASDQASKVGSLIFDPVGTNQYIKDELVPKHWKNNIPIPKRFDFLGTDIDFGKRDTLVEVQFSNYPFLLNNTVRSELFHKSNMDIDEEGMKVAIIITKGHMFPASNSSLYYEQAQNQLNSLAEYNVFDVPIRLVGLIEDFETDIDIVSTTYADKRYSRTITKRDTVKGKVIDTNTPNTRRRKRGTIVTY	soluble
MVQEAPAALPTEPGPSPVPAFLGKLWALVGDPGTDHLIRWSPSGTSFLVSDQSRFAKEVLPQYFKHSNMASFVRQLNMYGFRKVVSIEQGGLLRPERDHVEFQHPSFVRGREQLLERVRRKVPALRGDDGRWRPEDLGRLLGEVQALRGVQESTEARLRELRQQNEILWREVVTLRQSHGQQHRVIGKLIQCLFGPLQAGPSNAGGKRKLSLMLDEGSSCPTPAKFNTCPLPGALLQDPYFIQSPLPETNLGLSPHRARGPIISDIPEDSPSPEGTRLSPSSDGRREKGLALLKEEPASPGGDGEAGLALAPNECDFCVTAPPPLPVAVVQAILEGKGSFSPEGPRNAQQPEPGDPREIPDRGPLGLESGDRSPESLLPPMLLQPPQESVEPAGPLDVLGPSLQGREWTLMDLDMELSLMQPLVPERGEPELAVKGLNSPSPGKDPTLGAPLLLDVQAALGGPALGLPGALTIYSTPESRTASYLGPEASPSP	soluble
MKFETINQESIAKLMEIFYEKVRKDKDLGPIFNNAIGTSDEEWKEHKAKIGNFWAGMLLGEGDYNGQPLKKHLDLPPFPQEFFEIWLKLFEESLNIVYNEEMKNVILQRAQMIASHFQNMLYKYGGH	soluble
MRKKEDKYDFRALGLAIKEARKKQGLTREQVGAMIEIDPRYLTNIENKGQHPSLQVLYDLVSLLNVSVDEFFLPASSQVKSTKRRQLENKIDNFTDADLVIMESVADGIVKSKEVGEMAGENLYFQ	soluble
MGSDKIHHHHHHMTFVKKALSPDEYGEVLFQHDWMRGEPSDVVCELLAKSERLFFRQDDVLFREGDKMQHCLLVETGKLQAFRHTYGGDEKIFGQFERGEFVAIAAVFMDHGRFPMNIRALSDGHTLMIPRQDIHQFCLQRPELALRLLNYLGKKLYSTINQIDWLTSSSAPQRLADYLLRQHHIQQTQHLTLPVSRGQLATSLGMRGETLSRLMSDWKRQGHITYRGHQVELCDLNYLKELAAEARRTF	not soluble
MSLRNMSIINSTPVRVIAIVGCDGSGKSTLTASLVNELAARMPTEHIYLGQSSGRIGEWISQLPVIGAPFGRYLRSKAAHVHEKPSTPPGNITALVIYLLSCWRAYKFRKMLCKSQQGFLLITDRYPQVEVPGFRFDGPQLAKTTGGNGWIKMLRQRELKLYQWMASYLPVLLIRLGIDEQTAFARKPDHQLAALQEKIAVTPQLTFNGAKILELDGRHPADEILQASLRAIHAALSEGHHHHHH	soluble
VIRIGTRGSLLATTQAATVRDALIAGGHSAELVTISTEGDRSMAPIASLGVGVFTTALREAMEAGLVDAAVHSYKDLPTAADPRFTVAAIPPRNDPRDAVVARDGLTLGELPVGSLVGTSSPRRAAQLRALGLGLEIRPLRGNLDTRLNKVSSGDLDAIVVARAGLARLGRLDDVTETLEPVQMLPAPAQGALAVECRAGDSRLVAVLAELDDADTRAAVTAERALLADLEAGCSAPVGAIAEVVESIDEDGRVFEELSLRGCVAALDGSDVIRASGIGSCGRARELGLSVAAELFELGARELMWGVRH	not soluble
METKFYNHQGGHLILYFAGWGTPPDAVNHLILPENHDLLICYDYQDLNLDFDFSAYRHIRLVAWSMGVWAAERALQGIRLKSATAVNGTGLPCDDNFGIPCTVFKGTLENLTENTRLKFERRMCGDKASFEDYQQFPARPFGEIHQELIALFAMIGQDRRTDLIRWTNALVGSGDKIFMPANQHRYWTPRCTVREIDVGHYLFSRFTHWSALWNH	not soluble
MKRLIVGISGASGAIYGVRLLQVLRDVTDIETHLVMSQAARQTLSLETDFSLREVQALADVTHDARDIAASISSGSFQTLGMVILPCSIKTLSGIVHSYTDGLLTRAADVVLKERRPLVLCVRETPLHLGHLRLMTQAAEIGAVIMPPVPAFYHRPQSLDDVINQTVNRVLDQFAITLPEDLFARWQGA	not soluble
GSSGSSGMCGRFAQSQTREDYLALLAEDIERDIPYDPEPIGRYNVAPGTKVLLLSERDEHLHLDPVFWGYAPGWWDKPPLINARVETAATSRMFKPLWQHGRAICFADGWFEWKKEGDKKQPFFIYRADGQPIFMAAIGSTPFERGDEAEGFLIVTAAADQGLVDIHDRRPLVLSPEAAREWMRQEISGKEASEIAASGCVPANQFSWHPVSRAVGNVKNQGAELIQPV	soluble
MKSRFRFHLCCVCMLALAVAGCKVKRPDDVISESKMENLLYDYHLAKSMGDNLPYNENYKKTLYLDAVFKKYGTTEAVFDSSLVWYTRNTEVLSKIYEKVSKRLKAQQNEINHLIALRDNKPKMSEPGDSIDVWPWKCFIRLTGEMMNDQYAFVLPVDTNYKDRDTLVWEVRYRFLEPMLADSLRAVTMAMQVIYEKDTLNHLETITDPGVHQIRLYADTLGVMKEIKGFIYYPGVQGEKAGALLADRFALTRYHCSDSLSVAERDSINQLEALKTDSLKKVSDQKDTKISKDSLRKVDDLKDNQRISPEEMNRRRTVTPEKKPEQIEVEQHIQQEKIEQRRERQLNQRRNQQRRQSPSR	not soluble
